Laboratory results from article PMC2063460.

Tested on: Tus-LPETGG-His6 (sortase-immobilized on glycine-modified GMA beads) (Escherichia coli)
Assay: bead-based fluorescence binding (FACS)
Conditions: 50 mM Tris-HCl, 250 mM KCl, 0.1 mM EDTA, 0.1 mM DTT, pH 9; temperature of binding not stated

TerB
Kd: 29 nM
